Values of other authors in article PMC4298871.

Molecular target: M6P/IGF-IIR (Homo sapiens) (UniProt P11717)
Test: SPR

UniProt P11717, sequence (P11717 41-2491): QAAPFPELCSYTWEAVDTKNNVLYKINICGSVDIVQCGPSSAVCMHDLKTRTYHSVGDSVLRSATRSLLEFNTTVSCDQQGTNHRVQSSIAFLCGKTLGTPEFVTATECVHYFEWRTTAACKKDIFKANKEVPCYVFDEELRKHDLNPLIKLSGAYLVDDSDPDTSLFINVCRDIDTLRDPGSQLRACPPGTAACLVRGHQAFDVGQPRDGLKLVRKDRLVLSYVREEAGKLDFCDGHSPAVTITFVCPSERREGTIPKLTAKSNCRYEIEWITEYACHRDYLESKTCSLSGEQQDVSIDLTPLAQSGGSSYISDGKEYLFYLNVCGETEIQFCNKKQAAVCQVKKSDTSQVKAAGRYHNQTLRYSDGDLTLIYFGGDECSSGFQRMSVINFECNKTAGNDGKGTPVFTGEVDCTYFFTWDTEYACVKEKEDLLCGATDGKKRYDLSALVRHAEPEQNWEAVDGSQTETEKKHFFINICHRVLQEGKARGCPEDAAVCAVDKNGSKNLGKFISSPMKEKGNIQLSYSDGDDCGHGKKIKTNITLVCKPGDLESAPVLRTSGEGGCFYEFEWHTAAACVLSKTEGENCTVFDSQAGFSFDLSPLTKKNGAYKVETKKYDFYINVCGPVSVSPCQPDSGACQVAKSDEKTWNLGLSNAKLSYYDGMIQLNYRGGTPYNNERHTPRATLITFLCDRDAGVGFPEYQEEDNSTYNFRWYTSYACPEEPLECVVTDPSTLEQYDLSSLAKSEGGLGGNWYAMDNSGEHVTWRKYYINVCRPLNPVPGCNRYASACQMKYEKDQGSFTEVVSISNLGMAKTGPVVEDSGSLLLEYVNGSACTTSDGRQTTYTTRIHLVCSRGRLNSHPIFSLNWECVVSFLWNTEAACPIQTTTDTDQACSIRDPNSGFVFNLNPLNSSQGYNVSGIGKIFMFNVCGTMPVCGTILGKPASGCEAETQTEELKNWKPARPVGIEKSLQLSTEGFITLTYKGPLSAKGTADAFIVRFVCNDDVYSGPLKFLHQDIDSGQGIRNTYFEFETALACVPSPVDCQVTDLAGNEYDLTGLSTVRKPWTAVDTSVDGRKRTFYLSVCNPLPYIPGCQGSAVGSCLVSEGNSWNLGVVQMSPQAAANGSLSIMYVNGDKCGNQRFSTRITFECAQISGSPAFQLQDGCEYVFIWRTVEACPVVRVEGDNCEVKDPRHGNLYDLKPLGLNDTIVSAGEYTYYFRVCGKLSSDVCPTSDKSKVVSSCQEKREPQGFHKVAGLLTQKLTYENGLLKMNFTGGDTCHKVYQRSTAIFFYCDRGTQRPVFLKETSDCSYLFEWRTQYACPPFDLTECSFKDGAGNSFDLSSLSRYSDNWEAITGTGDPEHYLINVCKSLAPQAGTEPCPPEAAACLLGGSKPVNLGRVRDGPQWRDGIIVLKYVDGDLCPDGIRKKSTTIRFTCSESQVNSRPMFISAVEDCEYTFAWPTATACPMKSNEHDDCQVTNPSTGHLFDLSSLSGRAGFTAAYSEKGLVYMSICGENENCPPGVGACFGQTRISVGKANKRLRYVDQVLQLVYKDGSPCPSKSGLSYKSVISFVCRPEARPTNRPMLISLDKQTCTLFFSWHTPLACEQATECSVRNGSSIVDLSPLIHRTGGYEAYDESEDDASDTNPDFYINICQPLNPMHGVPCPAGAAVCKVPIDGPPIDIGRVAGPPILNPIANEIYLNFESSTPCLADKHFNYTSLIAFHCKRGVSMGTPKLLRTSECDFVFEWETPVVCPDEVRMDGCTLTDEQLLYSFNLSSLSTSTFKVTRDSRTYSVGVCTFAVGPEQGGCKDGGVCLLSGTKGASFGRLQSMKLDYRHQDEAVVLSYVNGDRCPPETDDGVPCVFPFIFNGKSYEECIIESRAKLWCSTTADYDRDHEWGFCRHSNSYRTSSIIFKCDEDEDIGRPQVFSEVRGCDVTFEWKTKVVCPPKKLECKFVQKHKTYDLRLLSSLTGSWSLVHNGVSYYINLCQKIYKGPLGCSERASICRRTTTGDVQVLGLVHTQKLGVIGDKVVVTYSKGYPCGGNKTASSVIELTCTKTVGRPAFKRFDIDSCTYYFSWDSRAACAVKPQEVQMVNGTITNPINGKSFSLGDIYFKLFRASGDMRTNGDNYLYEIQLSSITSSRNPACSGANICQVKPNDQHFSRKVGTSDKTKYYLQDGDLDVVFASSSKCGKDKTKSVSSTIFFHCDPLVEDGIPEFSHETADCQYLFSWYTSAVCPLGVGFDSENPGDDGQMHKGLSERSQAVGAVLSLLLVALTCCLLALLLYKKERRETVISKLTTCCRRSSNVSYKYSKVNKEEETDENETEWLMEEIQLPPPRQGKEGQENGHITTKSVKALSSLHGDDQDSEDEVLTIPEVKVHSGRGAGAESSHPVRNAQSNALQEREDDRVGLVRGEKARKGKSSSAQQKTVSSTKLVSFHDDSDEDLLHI

- Kd: 35.9 µM
Substance: DPP-4 (from UniProt P27487)
